Experimental data: PMC9585388 (Research and Practice in Thrombosis and Haemostasis, 2022)

Molecular target: T1, fibrinogen (UniProt P02671-2;P02675;P02679-2)
T1 sequence 1: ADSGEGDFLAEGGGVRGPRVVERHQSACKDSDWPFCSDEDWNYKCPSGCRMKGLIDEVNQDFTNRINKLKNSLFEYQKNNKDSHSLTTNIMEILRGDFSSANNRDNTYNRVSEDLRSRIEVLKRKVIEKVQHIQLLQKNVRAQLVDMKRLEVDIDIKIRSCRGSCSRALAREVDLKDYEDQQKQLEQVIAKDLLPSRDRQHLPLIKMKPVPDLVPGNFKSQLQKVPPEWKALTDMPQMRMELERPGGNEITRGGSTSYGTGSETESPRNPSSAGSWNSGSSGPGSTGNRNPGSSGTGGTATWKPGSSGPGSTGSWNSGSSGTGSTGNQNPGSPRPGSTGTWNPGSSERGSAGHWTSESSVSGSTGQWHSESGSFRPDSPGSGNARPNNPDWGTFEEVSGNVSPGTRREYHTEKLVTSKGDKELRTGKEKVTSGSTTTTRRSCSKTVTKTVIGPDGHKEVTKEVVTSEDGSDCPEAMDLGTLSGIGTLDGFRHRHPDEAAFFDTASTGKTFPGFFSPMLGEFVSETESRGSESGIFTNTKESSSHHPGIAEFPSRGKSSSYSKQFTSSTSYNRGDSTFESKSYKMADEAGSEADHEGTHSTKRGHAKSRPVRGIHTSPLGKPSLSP
T1 sequence 2: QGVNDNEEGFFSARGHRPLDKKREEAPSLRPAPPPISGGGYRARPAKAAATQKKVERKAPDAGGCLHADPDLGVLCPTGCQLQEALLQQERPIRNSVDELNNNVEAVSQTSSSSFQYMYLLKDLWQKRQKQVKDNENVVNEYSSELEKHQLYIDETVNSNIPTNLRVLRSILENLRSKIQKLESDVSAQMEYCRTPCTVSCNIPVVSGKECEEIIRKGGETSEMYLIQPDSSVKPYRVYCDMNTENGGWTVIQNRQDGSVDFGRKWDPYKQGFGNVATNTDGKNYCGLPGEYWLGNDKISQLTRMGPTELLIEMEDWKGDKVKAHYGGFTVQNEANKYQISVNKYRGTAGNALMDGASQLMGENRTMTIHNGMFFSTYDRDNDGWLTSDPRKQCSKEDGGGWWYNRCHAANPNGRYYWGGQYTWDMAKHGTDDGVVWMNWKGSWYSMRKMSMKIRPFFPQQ
T1 sequence 3: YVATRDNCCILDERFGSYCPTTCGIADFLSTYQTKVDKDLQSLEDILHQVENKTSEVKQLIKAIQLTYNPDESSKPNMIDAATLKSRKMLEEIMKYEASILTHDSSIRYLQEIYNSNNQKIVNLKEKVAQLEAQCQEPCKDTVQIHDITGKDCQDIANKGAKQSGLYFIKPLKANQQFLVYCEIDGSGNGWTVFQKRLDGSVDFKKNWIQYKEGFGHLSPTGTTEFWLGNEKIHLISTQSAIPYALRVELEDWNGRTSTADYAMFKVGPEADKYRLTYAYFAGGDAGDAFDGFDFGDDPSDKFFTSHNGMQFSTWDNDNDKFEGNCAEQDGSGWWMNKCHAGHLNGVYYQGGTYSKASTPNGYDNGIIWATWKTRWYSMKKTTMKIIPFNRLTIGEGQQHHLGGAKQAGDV
Assay: BLI

Kd: 46.9 nM
B1: recombinant FXIII‐B (natural protein)
chain: EEKPCGFPHVENGRIAQYYYTFKSFYFPMSIDKKLSFFCLAGYTTESGRQEEQTTCTTEGWSPEPRCFKKCTKPDLSNGYISDVKLLYKIQENMRYGCASGYKTTGGKDEEVVQCLSDGWSSQPTCRKEHETCLAPELYNGNYSTTQKTFKVKDKVQYECATGYYTAGGKKTEEVECLTYGWSLTPKCTKLKCSSLRLIENGYFHPVKQTYEEGDVVQFFCHENYYLSGSDLIQCYNFGWYPESPVCEGRRNRCPPPPLPINSKIQTHSTTYRHGEIVHIECELNFEIHGSAEIRCEDGKWTEPPKCIEGQEKVACEEPPFIENGAANLHSKIYYNGDKVTYACKSGYLLHGSNEITCNRGKWTLPPECVENNENCKHPPVVMNGAVADGILASYATGSSVEYRCNEYYLLRGSKISRCEQGKWSSPPVCLEPCTVNVDYMNRNNIEMKWKYEGKVLHGDLIDFVCKQGYDLSPLTPLSELSVQCNRGEVKYPLCTRKESKGMCTSPPLIKHGVIISSTVDTYENGSSVEYRCFDHHFLEGSREAYCLDGMWTTPPLCLEPCTLSFTEMEKNNLLLKWDFDNRPHILHGEYIEFICRGDTYPAELYITGSILRMQCDRGQLKYPRCIPRQSTLSYQEPLRT
